Numbered stars: 1 amine (or outer) side, 2 acyl side, 3 side chain; on linkers, the order of the positions; unused ones are H or OH. Bridge positions count the residues as written; N and C are the ends. TBMB = c1c(C[*:1])cc(C[*:3])cc1C[*:2]
How the values were obtained:
[1] = molecular target: T1, human trypsin (HTRYP, from human pancreas, 25 kDa) (human, UniProt P07477 24-247); assay: enzyme inhibition, Ki calculated from IC50 by the Cheng-Prusoff equation, pH 7.4, 25 °C
[2] = molecular target: T2, human plasma kallikrein (IHPKA, from human plasma, 86 kDa) (human, UniProt P03952 20-638); assay: as above
[3] = molecular target: T3, mouse tPA (MTPA, recombinantly produced in insect cells, 70 kDa) (mouse, UniProt P11214 33-559, limits assumed); assay: as above
T3 construct: also called murine tPA

[4] = molecular target: T4, human factor XIa (IHFXI, from human plasma, 160 kDa) (human, UniProt P03951 19-625); assay: as above
T4 construct: Printed 'factor Xla'; read as factor XIa; also called human factor Xla

[5] = molecular target: T5, human thrombin (IHT, from human plasma, 37 kDa) (human, UniProt P00734 328-622); assay: as above
[6] = molecular target: T6, human tPA (HTPA-TC, recombinant, 70 kDa) (human, UniProt P00750 36-562); assay: as above
[7] = molecular target: T7, mouse uPA (MUPA-LMW, recombinantly produced in insect cells, 31 kDa) (mouse, UniProt P06869 157-433, limits assumed); assay: as above
T7 construct: also called murine uPA

[8] = molecular target: T8, human plasmin (HPLM, from human plasma, 85 kDa) (human, UniProt P00747 97-810, limits assumed); assay: as above
[9] = molecular target: T9, human urokinase-type plasminogen activator (UPA-LMW, from human urine, 33 kDa) (human, UniProt P00749 156-431); assay: as above
[10] = molecular target: T1, human trypsin (HTRYP, from human …); assay: cell-based or functional assay
[11] = molecular target: T2, human plasma kallikrein (IHPKA, from …); assay: cell-based or functional assay
[12] = molecular target: T3, mouse tPA (MTPA, recombinantly produced …); assay: cell-based or functional assay
[13] = molecular target: T4, human factor XIa (IHFXI, from human …); assay: cell-based or functional assay
[14] = molecular target: T5, human thrombin (IHT, from human plasma, …); assay: cell-based or functional assay
[15] = molecular target: T6, human tPA (HTPA-TC, recombinant, 70 kDa); assay: cell-based or functional assay
[16] = molecular target: T7, mouse uPA (MUPA-LMW, recombinantly …); assay: cell-based or functional assay
[17] = molecular target: T8, human plasmin (HPLM, from human plasma, …); assay: cell-based or functional assay
[18] = molecular target: T9, human urokinase-type plasminogen …; assay: cell-based or functional assay
[19] = molecular target: T7, mouse uPA (MUPA-LMW, recombinantly …); assay: enzyme inhibition, Ki
[20] = molecular target: T9, human urokinase-type plasminogen …; assay: enzyme inhibition, Ki
[21] = molecular target: T9, human urokinase-type plasminogen …; assay: enzyme inhibition of human uPA, residual activity

T7 sequence (P06869 157-433 limits assumed): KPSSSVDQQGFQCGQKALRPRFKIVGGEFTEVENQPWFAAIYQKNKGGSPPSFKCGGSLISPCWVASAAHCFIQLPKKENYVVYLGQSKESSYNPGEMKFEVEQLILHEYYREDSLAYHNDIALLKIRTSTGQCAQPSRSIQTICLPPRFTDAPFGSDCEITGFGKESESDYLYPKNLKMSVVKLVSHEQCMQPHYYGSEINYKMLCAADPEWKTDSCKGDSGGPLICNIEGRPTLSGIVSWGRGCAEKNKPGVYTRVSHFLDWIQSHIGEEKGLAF
T3 sequence (P11214 33-559 limits assumed): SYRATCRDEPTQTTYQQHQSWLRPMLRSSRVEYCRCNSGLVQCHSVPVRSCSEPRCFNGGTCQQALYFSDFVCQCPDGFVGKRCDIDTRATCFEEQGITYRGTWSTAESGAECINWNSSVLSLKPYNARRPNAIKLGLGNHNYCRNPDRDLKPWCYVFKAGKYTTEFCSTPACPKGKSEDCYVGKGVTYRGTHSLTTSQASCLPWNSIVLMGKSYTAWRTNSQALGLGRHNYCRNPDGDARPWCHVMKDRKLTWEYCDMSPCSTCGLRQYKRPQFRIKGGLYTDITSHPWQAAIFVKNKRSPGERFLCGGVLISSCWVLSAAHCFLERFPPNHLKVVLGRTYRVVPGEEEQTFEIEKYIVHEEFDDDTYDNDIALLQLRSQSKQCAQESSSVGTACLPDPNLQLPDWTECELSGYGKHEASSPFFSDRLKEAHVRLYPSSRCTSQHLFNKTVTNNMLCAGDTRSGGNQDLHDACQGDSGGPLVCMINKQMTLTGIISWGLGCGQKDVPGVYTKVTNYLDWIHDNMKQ
T2 sequence (P03952 20-638 limits assumed): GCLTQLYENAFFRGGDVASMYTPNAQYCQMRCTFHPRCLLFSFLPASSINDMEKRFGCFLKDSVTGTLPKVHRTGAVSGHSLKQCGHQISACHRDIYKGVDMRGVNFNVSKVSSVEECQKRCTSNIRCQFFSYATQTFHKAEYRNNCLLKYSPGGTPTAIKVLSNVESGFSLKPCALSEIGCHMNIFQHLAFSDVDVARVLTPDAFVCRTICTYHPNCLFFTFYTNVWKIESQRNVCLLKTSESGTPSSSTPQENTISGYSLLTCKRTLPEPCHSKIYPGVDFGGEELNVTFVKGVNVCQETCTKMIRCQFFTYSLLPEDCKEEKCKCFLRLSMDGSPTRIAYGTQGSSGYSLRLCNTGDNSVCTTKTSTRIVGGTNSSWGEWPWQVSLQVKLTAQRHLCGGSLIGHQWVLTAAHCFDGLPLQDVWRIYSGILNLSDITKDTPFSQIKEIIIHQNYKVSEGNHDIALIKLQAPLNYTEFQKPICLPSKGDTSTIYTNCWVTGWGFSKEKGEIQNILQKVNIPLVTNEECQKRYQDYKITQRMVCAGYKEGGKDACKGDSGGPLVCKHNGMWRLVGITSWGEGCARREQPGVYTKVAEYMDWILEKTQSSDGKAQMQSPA
T8 sequence (P00747 97-810 limits assumed): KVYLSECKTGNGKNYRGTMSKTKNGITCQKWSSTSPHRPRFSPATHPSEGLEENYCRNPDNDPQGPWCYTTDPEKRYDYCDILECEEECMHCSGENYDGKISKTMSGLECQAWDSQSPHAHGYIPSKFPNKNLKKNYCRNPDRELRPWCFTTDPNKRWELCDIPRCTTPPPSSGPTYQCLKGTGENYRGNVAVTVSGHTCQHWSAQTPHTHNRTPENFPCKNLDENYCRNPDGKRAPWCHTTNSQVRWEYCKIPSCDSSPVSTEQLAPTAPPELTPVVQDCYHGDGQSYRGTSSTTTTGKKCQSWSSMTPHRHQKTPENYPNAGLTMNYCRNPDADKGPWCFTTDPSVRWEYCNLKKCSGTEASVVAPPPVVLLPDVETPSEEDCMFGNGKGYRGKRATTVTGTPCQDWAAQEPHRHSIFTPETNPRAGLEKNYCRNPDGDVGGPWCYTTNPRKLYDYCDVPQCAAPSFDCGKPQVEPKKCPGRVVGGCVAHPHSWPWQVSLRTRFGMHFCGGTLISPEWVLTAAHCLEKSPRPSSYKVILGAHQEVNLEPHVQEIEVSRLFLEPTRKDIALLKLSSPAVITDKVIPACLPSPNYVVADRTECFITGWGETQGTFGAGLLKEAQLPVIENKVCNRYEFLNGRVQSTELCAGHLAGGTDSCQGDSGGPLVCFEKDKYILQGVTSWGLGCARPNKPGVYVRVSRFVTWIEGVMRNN
T4 sequence (P03951 19-625 limits assumed): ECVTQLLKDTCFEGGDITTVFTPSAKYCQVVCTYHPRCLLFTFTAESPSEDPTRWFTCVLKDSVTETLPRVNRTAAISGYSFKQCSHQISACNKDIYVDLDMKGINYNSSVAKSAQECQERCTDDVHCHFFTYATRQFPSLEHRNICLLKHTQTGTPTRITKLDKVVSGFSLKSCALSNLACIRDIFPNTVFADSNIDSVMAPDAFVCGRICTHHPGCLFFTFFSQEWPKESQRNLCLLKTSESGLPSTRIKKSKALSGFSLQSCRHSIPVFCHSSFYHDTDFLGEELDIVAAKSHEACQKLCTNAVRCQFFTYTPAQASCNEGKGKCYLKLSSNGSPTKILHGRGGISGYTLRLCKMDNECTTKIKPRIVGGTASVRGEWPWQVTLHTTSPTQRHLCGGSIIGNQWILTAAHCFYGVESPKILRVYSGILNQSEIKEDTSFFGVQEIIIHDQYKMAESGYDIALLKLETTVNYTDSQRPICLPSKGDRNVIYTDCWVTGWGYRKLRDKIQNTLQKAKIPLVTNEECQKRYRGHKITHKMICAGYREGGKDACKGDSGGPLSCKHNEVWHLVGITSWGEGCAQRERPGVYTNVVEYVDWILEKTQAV
T6 sequence (P00750 36-562 limits assumed): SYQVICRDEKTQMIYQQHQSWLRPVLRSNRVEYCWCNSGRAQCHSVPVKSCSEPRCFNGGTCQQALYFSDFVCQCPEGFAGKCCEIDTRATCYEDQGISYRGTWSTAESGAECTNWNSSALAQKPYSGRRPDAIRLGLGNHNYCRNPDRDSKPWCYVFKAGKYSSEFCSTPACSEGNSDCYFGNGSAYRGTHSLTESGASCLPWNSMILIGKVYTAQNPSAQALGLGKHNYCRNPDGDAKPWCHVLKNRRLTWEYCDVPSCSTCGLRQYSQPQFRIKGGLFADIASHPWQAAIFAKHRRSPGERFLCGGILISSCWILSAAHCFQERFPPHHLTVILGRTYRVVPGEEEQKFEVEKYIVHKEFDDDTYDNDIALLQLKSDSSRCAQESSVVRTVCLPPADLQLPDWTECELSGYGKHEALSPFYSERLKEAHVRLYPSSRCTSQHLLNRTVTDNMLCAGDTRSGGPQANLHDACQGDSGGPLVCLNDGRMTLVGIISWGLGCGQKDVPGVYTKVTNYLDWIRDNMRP

B1: UK18 bicyclic peptide (chemically synthesized peptide-TBMB conjugate, H-ACSRYEVDCRGRGSACG-NH2 cyclised with tris-(bromomethyl)benzene) (peptide)
peptide: H-ACSRYEVDCRGRGSACG-NH2
modifications: linker 2-9-16 via TBMB
SMILES: CC(C)[C@@H]1NC(=O)[C@H](CCC(=O)O)NC(=O)[C@H](Cc2ccc(O)cc2)NC(=O)[C@H](CCCNC(=N)N)NC(=O)[C@H](CO)NC(=O)[C@@H](NC(=O)[C@H](C)N)CSCc2cc3cc(c2)CSC[C@H](NC(=O)[C@H](CC(=O)O)NC1=O)C(=O)N[C@@H](CCCNC(=N)N)C(=O)NCC(=O)N[C@@H](CCCNC(=N)N)C(=O)NCC(=O)N[C@@H](CO)C(=O)N[C@@H](C)C(=O)N[C@H](C(=O)NCC(N)=O)CSC3
notes: Synthetic bicyclic peptide, 1903 Da after reaction with TBMB; also called clone 18; TBMB-cyclised UK18 peptide
[1]
  Ki: 34.9 µM
[2]
  Ki: 30.5 µM
[3]
  Ki: 33.7 µM
[4]
  Ki: 40.4 µM
[5]
  Ki: 23.1 µM
[6]
  Ki: 56.1 µM
[7]
  Ki: 42 µM
[8]
  Ki: 36.9 µM
[9]
  Ki: 0.03 µM
[10]
  IC50 (µM), residual protease activity, substrate Z-Gly-Gly-Arg-AMC: 54.5 µM
[11]
  IC50 (µM), residual protease activity, substrate Z-Phe-Arg-AMC: 47.5 µM
[12]
  IC50 (µM), residual protease activity, substrate Z-Gly-Gly-Arg-AMC: 52.5 µM
[13]
  IC50 (µM), residual protease activity, substrate Boc-Phe-Ser-Arg-AMC: 63 µM
[14]
  IC50 (µM), residual protease activity, substrate Z-Gly-Gly-Arg-AMC: 36 µM
[15]
  IC50 (µM), residual protease activity, substrate Z-Gly-Gly-Arg-AMC: 87.5 µM
[16]
  IC50 (µM), residual protease activity, substrate Z-Gly-Gly-Arg-AMC: 65.5 µM
[17]
  IC50 (µM), residual protease activity, substrate H-D-Val-Leu-Lys-AMC: 57.5 µM
[18]
  IC50 (µM), residual protease activity, substrate Z-Gly-Gly-Arg-AMC: 0.047 µM
[19]
  fold of Ki against the Ki of human uPA: ~1400 fold
[20]
  fold better inhibition than of other serine proteases: ~1000 fold

B2: linear UK18 peptide with serine instead of cysteine in positions 2, 9 and 16 (H-ASSRYEVDSRGRGSASG-NH2) (peptide)
peptide: H-ASSRYEVDSRGRGSASG-NH2
notes: Not conjugated to TBMB; M = 1740.0 Da; also called UK18ser
[21]
  Ki: 5.8 µM
  fold weaker inhibition than the TBMB-cyclised UK18 peptide: ~200 fold

— patent publication EP2420255A2 (Ecole Polytechnique Federale De Lausanne (EPFL), dated 2012)
